Here are results for four molecules from publication PMC5659314 (Journal of immunology (Baltimore, Md. : 1950), 2017).

In one assay the target is mouse DR3.Fc (mouse). Nature of the assay: SPR. On the technique in general: SPR reads the build-up and loss of mass on a sensor chip optically.
Assay [1] has as its target recombinant mouse Galectin-9 (mouse, UniProt O08573 1-353). Nature of the assay: SPR.
Assay [2] addresses recombinant human Galectin-9 (human, UniProt O00182 1-355). As to the kind of experiment: SPR.
A further assay has as its target T1, human TL1A (human, UniProt O95150 72-251).
T1 sequence (looked up): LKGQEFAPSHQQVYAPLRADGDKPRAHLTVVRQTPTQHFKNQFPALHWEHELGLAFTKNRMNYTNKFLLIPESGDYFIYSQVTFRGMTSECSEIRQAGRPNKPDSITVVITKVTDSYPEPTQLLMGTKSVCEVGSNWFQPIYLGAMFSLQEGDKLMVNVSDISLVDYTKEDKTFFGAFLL
As to the kind of experiment: ELISA. A general note: ELISA stands for enzyme-linked immunosorbent assay.

Chain of recombinant mouse Galectin-9 (mouse, UniProt O08573 1-353) (O08573 whole entry): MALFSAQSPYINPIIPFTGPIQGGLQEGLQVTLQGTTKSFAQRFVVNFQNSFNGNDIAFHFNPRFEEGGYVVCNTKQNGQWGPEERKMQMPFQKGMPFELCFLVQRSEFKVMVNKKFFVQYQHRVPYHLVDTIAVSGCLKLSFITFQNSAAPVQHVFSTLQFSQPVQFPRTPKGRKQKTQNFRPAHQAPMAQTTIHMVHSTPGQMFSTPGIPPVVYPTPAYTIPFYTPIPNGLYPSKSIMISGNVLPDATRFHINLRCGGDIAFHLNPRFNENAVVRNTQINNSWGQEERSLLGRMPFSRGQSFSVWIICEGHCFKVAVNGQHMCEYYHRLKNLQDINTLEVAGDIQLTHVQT
Chain of recombinant human Galectin-9 (human, UniProt O00182 1-355) (O00182 whole entry): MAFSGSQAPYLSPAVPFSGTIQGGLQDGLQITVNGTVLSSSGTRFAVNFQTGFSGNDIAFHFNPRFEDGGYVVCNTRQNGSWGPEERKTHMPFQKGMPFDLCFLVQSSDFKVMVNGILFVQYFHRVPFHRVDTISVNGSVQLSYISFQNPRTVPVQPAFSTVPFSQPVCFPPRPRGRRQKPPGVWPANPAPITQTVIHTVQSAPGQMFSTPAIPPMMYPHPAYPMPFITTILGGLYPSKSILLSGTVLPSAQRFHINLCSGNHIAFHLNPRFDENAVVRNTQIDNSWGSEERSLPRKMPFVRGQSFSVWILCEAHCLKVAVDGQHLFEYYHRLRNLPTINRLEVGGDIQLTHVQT

As a reminder, the Kd is the constant that tells how readily two partners part at equilibrium. In the assay with mouse DR3.Fc (mouse), “recombinant mouse Galectin-9 (from UniProt O08573 1-353) (natural protein)” displayed a Kd of 360 nM.

Regarding “recombinant human Galectin-9 (from UniProt O00182 1-355) (natural protein)”, the Kd with mouse DR3.Fc (mouse) worked out at 180 nM.

B1: human DR3.Fc (fusion protein containing the extracellular region of human DR3) (Fc fusion, UniProt Q93038 25-199, looked up)
chain: QGGTRSPRCDCAGDFHKKIGLFCCRGCPAGHYLKAPCTEPCGNSTCLVCPQDTFLAWENHHNSECARCQACDEQASQVALENCSAVADTRCGCKPGWFVECQVSQCVSSSPFYCQPCLDCGALHRHTRLLCSRRDTDCGTCLPGFYEHGDGCVSCPTSTLGSCPERCAAVCGWRQ
Turning to B1, the Kd in assay [1] is ~440 nM; in assay [2], ~430 nM. Moreover, the binding result in the assay with human TL1A is “binds”.

B2: de-glycosylated human DR3.Fc (PNGase F treated) (Fc fusion, UniProt Q93038 25-199, looked up)
chain: B1 chain
modifications: N-linked sugars removed by PNGase F
For B2, the binding result in the assay with human TL1A is reported as “binds”.
